Results: US8034769

What was measured:
CD4 = CD4 (UniProt P01730); assay: SPR, BIACORE 2000, CD4 immobilized on C1 chip
HIV-GP120 (HIV-1) = assay: SPR, BIACORE 2000, HIV-GP120 immobilized on C1 chip

Chain of oxidized antithrombin III (P01008 33-464): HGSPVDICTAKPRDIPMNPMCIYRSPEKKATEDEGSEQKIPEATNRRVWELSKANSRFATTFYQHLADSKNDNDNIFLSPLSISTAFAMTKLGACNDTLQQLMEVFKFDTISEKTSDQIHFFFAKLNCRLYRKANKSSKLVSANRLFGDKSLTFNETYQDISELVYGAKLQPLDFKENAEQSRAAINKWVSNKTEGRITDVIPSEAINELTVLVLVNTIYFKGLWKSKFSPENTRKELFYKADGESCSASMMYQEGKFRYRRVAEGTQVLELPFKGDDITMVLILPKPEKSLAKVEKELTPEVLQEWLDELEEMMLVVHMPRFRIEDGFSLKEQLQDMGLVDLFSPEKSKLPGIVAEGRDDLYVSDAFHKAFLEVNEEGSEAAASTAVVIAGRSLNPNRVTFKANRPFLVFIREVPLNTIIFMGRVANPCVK

**Q.** Which results are given for oxidized antithrombin III?
**A.** Kd (CD4): 1.63 nM; kon (CD4): 713000 M⁻¹ s⁻¹; Kd (HIV-GP120 (HIV-1)): 0.701 nM; kon (HIV-GP120 (HIV-1)): 638000 M⁻¹ s⁻¹
